According to publication PMC10404699, “SAMHD1 impairs type I interferon induction through the MAVS, IKKε, and IRF7 signaling axis during viral infection” (The Journal of Biological Chemistry, 2023):

Target: T1, recombinant N-terminal His-tagged full-length SAMHD1 (human, UniProt Q9Y3Z3 1-626)
T1 construct: also called recombinant FL SAMHD1; recombinant SAMHD1
Assay: pull-down; in vitro pull-down of purified recombinant proteins with an anti-SAMHD1 antibody, analyzed by immunoblot; performed as described in ref. 16
Conditions: both partners purified

T1 sequence (Q9Y3Z3 whole entry): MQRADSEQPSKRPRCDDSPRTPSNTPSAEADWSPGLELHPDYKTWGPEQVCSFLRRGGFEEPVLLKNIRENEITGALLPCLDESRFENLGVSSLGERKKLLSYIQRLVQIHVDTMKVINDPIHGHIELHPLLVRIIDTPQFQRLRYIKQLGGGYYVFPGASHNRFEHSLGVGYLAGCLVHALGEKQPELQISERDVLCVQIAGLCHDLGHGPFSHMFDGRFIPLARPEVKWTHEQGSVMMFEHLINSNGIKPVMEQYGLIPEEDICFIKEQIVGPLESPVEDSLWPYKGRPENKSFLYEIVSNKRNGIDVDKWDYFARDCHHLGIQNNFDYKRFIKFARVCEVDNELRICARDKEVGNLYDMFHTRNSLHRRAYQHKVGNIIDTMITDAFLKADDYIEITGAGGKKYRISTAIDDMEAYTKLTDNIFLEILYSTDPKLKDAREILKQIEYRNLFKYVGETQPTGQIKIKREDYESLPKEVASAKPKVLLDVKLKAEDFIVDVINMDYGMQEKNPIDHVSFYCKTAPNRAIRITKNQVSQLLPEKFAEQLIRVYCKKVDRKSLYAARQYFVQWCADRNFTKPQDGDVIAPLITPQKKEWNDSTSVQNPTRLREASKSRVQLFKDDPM

B1: purified His-tagged MAVS without the TM domain (aa 1-513) (domain or fragment, human, UniProt Q7Z434 1-513, looked up)
chain: MPFAEDKTYKYICRNFSNFCNVDVVEILPYLPCLTARDQDRLRATCTLSGNRDTLWHLFNTLQRRPGWVEYFIAALRGCELVDLADEVASVYQSYQPRTSDRPPDPLEPPSLPAERPGPPTPAAAHSIPYNSCREKEPSYPMPVQETQAPESPGENSEQALQTLSPRAIPRNPDGGPLESSSDLAALSPLTSSGHQEQDTELGSTHTAGATSSLTPSRGPVSPSVSFQPLARSTPRASRLPGPTGSVVSTGTSFSSSSPGLASAGAAEGKQGAESDQAEPIICSSGAEAPANSLPSKVPTTLMPVNTVALKVPANPASVSTVPSKLPTSSKPPGAVPSNALTNPAPSKLPINSTRAGMVPSKVPTSMVLTKVSASTVPTDGSSRNEETPAAPTPAGATGGSSAWLDSSSENRGLGSELSKPGVLASQVDSPFSGCFEDLAISASTSLGMGPCHGPEENEYKSEGTFGIHVAENPSIQLLEGNPGPPADPDGGPRPQADRKFQEREVPCHRPSP
notes: also called MAVS without TM; recombinant MAVS without the TM domain; source: bought: Origene (AR50771PU-N); purified from E. coli
- binding result: binds
